Experimental findings from article PMC4753514 are described below.

Test [1] concerns the target Ecad-Fc (recombinant human epithelial cadherin fused with IgG-Fc).
The target of test [2] is ProG-TGT (Protein G fragment, amino acids 190-384, conjugated to a double-stranded DNA tension gauge tether with biotin) (UniProt P19909). As to the kind of experiment: micro-ring resonator; 200 ug/ml neutravidin, 0.05 uM ProG-TGT and 50 ug/ml Ecad-Fc flowed successively over a polymer-passivated surface presenting biotin; ProG-TGT held through biotin:neutravidin; film thickness read out.

“E-cadherin on DLD-1 cells (from UniProt P12830 155-882) (receptor)”: in test [1], the surface density of adhered DLD-1 cells on the ProG-TGT (43 pN) surface with Ecad-Fc (control surface without Ecad-Fc: 8/mm^2) is 386 /mm^2.
As for “Ecad-Fc (recombinant human epithelial cadherin fused with IgG-Fc) (Fc fusion)”, in test [2], the film thickness increase turned out to be 237 pm and the stoichiometry N (Ecad-Fc per ProG-TGT (molar ratio)) is 0.87.
